Results published in US8158376B2, “Bisubstrate fluorescent probe binding to protein kinases” (University of Tartu, priority 2006, dated 2012).
Like-named read-outs stand apart in the source and are kept apart here.

What was measured:
[1] = molecular target: T1, PDK1 (Homo sapiens, UniProt O15530); test: Kinase selectivity panel; type: biochemical; details: read-out: residual activity (%) PDK1
T1 sequence (O15530 1-556): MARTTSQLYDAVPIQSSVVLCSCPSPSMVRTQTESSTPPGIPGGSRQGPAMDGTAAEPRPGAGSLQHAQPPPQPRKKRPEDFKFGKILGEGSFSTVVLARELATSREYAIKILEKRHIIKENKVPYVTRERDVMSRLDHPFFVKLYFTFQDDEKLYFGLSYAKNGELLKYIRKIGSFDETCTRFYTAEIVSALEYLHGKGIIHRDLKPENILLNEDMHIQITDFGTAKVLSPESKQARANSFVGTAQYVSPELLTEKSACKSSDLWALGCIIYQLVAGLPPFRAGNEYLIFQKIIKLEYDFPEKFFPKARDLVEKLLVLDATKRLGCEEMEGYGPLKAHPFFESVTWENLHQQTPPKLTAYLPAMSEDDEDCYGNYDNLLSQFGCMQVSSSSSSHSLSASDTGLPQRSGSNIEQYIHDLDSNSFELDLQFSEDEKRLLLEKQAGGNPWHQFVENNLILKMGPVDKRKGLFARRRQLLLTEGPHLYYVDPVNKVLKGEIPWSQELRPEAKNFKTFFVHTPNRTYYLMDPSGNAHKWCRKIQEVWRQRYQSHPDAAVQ
How it was run: (§1)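 52-kinase panel; assays run at 30° C.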

[2] = molecular target: PRK2 (Homo sapiens, UniProt Q16513); test: Kinase selectivity panel; type: biochemical; details: read-out: residual activity (%) PRK2
Chain of PRK2 (Q16513 whole entry, species assumed): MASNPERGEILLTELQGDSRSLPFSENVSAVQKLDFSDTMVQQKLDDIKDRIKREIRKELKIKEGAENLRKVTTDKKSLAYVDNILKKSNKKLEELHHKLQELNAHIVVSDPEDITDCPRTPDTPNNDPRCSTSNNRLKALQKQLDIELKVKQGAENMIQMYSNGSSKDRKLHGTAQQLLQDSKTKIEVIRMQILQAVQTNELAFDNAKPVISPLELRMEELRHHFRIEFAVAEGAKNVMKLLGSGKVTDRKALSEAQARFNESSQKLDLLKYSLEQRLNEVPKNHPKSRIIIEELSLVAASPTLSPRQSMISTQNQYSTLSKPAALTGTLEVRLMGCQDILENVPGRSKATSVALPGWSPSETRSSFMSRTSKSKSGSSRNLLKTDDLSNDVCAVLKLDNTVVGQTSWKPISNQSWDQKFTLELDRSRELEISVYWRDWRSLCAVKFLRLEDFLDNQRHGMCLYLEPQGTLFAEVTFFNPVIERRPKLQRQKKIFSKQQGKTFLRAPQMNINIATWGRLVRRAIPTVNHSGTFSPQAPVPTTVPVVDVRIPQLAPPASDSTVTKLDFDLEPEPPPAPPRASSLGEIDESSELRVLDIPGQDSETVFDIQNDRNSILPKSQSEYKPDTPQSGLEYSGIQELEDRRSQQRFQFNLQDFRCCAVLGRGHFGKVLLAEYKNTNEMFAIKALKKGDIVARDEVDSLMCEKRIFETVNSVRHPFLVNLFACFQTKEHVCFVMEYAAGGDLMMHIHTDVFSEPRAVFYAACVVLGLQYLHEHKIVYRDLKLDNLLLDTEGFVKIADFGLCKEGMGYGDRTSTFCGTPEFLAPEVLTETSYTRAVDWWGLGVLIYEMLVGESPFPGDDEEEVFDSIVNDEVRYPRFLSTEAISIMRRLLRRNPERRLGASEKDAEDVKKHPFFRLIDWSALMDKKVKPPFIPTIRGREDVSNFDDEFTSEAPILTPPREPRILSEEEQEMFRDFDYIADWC
How it was run: as §1

[3] = molecular target: cAPK Cα (Homo sapiens, UniProt P17612); test: Competition: displacement of ARC-TAMRA from complex with cAPK Cα, fluorescence anisotropy, LS 55; type: binding; design: purchased Biaffin AG
Procedure: A complex was created between 10 nM of ARC-TAMRA and 10 nM of cAPK Cα in 0.500 ml of buffer (50 mM HEPES, 200 mM NaCl, 0.5 g/l BSA, 5 mM DTT, 0.05% TWEEN 20, MilliQ water; pH 7.4). Different compounds were screened for binding to cAPK Cα against fixed concentrations of ARC-TAMRA and cAPK Cα (FIG. 4). 1-3 μl quantities of various dilutions of the solution of the inhibitor were added to 500 μl solution of ARC-TAMRA complex with the kinase and fluorescence anisotropy was measured after each addition of the […] after 10 min delay time.

[4] = molecular target: CDK2/cyclin A (Homo sapiens, UniProt P24941); test: Kinase selectivity panel; type: biochemical; details: inhibitor 1 μM; ATP 20 μM; read-out: residual activity (%) CDK2/cyclin A
Procedure: (§2) The panel of kinases included all 52 kinases available for testing. To the best of our knowledge, the selectivity profiling has not been carried out with a wide panel of PK before for bisubstrate-type inhibitors.
(§3) The assay of protein kinases was performed at 30° C. as described previously [Davies et al., Biochem. J. 351 (2000) 95; Murray et al., Biochem. J. 384 (2004) 477]. The results of the testing are expressed as the % of residual activity of the kinase in the presence of the inhibitor at 1 micromolar concentration.

[5] = molecular target: SAPK2a/p38 (Homo sapiens, UniProt Q16539); test: Kinase selectivity panel; type: biochemical; details: inhibitor 1 μM; ATP 50 μM; read-out: residual activity (%) SAPK2a/p38
Chain of SAPK2a/p38 (Q16539 whole entry): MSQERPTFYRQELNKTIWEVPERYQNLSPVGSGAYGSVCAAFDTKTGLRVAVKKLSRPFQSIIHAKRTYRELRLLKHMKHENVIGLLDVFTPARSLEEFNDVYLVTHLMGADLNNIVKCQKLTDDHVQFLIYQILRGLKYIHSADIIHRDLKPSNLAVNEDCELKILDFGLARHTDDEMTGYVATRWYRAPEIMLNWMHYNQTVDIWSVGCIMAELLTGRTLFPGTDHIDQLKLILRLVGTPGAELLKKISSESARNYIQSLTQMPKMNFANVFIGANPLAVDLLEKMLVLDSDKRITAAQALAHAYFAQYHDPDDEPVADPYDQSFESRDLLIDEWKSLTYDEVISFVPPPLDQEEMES
Procedure: as §2, §3

[6] = molecular target: T2, SAPK4/p38d (Homo sapiens, UniProt O15264); test: Kinase selectivity panel; type: biochemical; details: inhibitor 1 μM; ATP 5 μM; read-out: residual activity (%) SAPK4/p38d
T2 sequence (O15264 1-365): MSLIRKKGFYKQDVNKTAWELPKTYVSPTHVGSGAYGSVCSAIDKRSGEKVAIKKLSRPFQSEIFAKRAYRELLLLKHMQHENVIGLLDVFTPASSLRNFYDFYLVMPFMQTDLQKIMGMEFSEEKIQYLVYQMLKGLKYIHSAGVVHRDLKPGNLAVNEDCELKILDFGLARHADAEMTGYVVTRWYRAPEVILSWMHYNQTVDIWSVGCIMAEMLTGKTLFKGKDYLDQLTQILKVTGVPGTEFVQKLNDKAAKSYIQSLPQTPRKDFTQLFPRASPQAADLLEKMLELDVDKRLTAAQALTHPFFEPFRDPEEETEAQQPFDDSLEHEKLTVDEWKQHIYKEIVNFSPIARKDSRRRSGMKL
Procedure: as §2, §3

[7] = molecular target: MAPK2/ERK2 (Homo sapiens, UniProt P28482); test: Kinase selectivity panel; type: biochemical; details: inhibitor 1 μM; ATP 50 μM; read-out: residual activity (%) MAPK2/ERK2
Chain of MAPK2/ERK2 (P28482 whole entry): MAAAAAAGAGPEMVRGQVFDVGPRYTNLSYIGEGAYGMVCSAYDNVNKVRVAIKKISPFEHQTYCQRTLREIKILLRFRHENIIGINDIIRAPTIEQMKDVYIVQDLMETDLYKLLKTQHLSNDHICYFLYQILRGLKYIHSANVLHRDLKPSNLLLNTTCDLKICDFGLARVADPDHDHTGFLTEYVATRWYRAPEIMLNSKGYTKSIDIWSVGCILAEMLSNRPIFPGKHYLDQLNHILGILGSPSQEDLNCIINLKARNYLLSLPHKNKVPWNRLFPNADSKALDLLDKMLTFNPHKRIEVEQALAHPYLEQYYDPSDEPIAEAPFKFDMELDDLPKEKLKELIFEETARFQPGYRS
Procedure: as §2, §3

[8] = molecular target: JNK/SAPK1c (Homo sapiens, UniProt P45983); test: Kinase selectivity panel; type: biochemical; details: inhibitor 1 μM; ATP 20 μM; read-out: residual activity (%) JNK/SAPK1c
Chain of JNK/SAPK1c (P45983 whole entry): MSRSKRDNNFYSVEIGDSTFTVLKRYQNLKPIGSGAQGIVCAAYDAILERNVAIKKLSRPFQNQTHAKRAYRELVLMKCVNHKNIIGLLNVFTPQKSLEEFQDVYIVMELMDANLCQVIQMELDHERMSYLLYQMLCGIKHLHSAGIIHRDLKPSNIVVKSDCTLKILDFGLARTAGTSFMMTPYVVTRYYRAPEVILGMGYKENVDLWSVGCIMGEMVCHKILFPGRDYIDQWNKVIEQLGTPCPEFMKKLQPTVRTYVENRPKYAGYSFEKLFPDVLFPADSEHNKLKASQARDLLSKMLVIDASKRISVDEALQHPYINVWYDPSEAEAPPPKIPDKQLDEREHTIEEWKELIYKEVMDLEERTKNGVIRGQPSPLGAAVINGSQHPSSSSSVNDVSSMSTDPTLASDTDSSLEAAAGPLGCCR
Procedure: as §2, §3

[9] = molecular target: SAPK2b/p38β2 (Homo sapiens, UniProt Q15759); test: Kinase selectivity panel; type: biochemical; details: inhibitor 1 μM; ATP 20 μM; read-out: residual activity (%) SAPK2b/p38β2
Chain of SAPK2b/p38β2 (Q15759 whole entry): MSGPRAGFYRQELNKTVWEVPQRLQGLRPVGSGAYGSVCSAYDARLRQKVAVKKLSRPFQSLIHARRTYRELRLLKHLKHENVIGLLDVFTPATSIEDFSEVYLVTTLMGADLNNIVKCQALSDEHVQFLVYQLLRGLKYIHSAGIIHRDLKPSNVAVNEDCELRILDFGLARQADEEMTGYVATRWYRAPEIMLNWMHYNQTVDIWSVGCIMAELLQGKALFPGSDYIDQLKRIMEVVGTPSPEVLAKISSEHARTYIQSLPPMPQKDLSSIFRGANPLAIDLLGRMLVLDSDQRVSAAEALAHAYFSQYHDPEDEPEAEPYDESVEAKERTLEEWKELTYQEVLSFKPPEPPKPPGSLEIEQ
Procedure: as §2, §3

[10] = molecular target: T3, SAPK3/p38g (Homo sapiens, UniProt P53778); test: Kinase selectivity panel; type: biochemical; details: inhibitor 1 μM; ATP 5 μM; read-out: residual activity (%) SAPK3/p38g
T3 sequence (P53778 1-367): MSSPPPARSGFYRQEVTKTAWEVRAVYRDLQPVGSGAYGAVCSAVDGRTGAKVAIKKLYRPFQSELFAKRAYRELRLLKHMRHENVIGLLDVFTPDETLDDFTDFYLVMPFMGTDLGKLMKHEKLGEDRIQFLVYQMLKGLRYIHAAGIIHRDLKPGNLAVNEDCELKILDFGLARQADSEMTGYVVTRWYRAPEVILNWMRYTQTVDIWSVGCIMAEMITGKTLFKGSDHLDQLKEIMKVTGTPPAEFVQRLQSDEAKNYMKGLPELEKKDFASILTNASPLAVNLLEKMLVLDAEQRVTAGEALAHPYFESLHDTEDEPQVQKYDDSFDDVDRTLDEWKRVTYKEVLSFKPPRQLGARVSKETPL
Procedure: as §2, §3

[11] = molecular target: MSK1 (Homo sapiens, UniProt O75582); test: Kinase selectivity panel; type: biochemical; details: inhibitor 1 μM; ATP 20 μM; read-out: residual activity (%) MSK1
Chain of MSK1 (O75582 whole entry, species assumed): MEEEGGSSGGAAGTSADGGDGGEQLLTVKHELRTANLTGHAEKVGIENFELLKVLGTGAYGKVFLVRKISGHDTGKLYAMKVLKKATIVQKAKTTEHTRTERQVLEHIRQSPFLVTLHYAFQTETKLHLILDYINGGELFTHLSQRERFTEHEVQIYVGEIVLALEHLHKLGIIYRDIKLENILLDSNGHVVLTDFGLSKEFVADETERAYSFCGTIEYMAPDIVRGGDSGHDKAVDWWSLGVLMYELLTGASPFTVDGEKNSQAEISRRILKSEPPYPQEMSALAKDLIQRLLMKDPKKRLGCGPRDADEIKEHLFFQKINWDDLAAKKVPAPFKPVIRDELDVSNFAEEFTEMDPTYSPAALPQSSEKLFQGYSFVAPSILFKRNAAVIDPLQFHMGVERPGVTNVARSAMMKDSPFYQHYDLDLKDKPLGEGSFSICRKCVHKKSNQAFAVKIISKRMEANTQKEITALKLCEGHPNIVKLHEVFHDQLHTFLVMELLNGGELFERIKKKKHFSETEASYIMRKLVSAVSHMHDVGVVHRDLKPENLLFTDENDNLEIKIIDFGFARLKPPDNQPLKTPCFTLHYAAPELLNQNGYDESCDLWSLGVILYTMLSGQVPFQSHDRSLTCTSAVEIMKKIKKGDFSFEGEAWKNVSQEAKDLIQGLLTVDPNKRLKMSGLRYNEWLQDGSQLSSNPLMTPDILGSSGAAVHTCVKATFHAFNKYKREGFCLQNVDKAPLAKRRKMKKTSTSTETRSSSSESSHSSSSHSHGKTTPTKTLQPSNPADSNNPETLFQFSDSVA
How it was run: as §1

Compound | remaining activity at 1 µM [1] | remaining activity at 1 µM [2] | IC50 ([3]; 10 nM ARC-TAMRA, 10 nM cAPK Cα) | Kd ([3]; cAPK Cα displacement, read-out: Kd of inhibitor (characterized with the probe)) | Ki ([3]; read-out: Ki (competitive binding)) | remaining activity at 1 µM [4] | remaining activity at 1 µM [5] | remaining activity at 1 µM [6] | remaining activity at 1 µM [7] | remaining activity at 1 µM [8] | remaining activity at 1 µM [9] | remaining activity at 1 µM [10] | remaining activity at 1 µM ([1]; inhibitor 1 μM, ATP 20 μM) | remaining activity at 1 µM [11] | remaining activity at 1 µM ([2]; inhibitor 1 μM, ATP 5 μM)
N=C(N)NCCC[C@@H](NC(=O)[C@@H](CCCNC(=N)N)NC(=O)[C@@H](CCCNC(=N)N)NC(=O)[C@@H](CCCNC(=N)N)NC(=O)[C@@H](CCCNC(=N)N)NC(=O)[C@@H](CCCNC(=N)N)NC(=O)CCCCCNC(=O)[C@H]1O[C@@H](n2cnc3c(N)ncnc32)[C@H](O)[C@@H]1O)C(N)=O [Compound 5, AdcAhx(D-Arg)6-NH2] | 62% | 2% | 35 nM | 2.5 nM | 2.5 nM | 88% | 79% | 107% | 100% | 70% | 85% | 111% | – | – | –
N=C(N)NCCC[C@@H](NC(=O)[C@@H](CCCNC(=N)N)NC(=O)[C@@H](CCCNC(=N)N)NC(=O)[C@@H](CCCNC(=N)N)NC(=O)[C@@H](CCCNC(=N)N)NC(=O)[C@@H](CCCNC(=N)N)NC(=O)CCCCCNCCNS(=O)(=O)c1cccc2cnccc12)C(N)=O [Compound 26, H9-Hex(D-Arg)6-NH2] | – | – | – | – | – | 73% | 76% | 93% | 95% | 75% | 80% | 99% | 56% | 1% | 2%
